These results are taken from the supplement of paper PMC11780869.

The series concerns Bacillus subtilis. The series is described as follows: cleaved RNA product abundance (RNA/gDNA barcode ratio) relative to median wild-type variant (ratio to wild type); higher = more accumulation of the downstream cleavage product. As to conditions: experiment (reporter, strain, medium): exp 8a: truncated aprE reporter, strain BJT201 with 2% xylose (RNase J1 expressed); cleavage site: glnRA (positions -5 to +31 mutated). The method, boiled down:
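Reporter mRNAs based on truncated aprE or tetM carried barcoded, mutagenized RNase Y cleavage-site windows built from oligos with a 9% error rate and were integrated into the B. subtilis chromosome. Cultures grew in LB at 37°C from OD600 0.0003 to 0.3. Cleaved RNA was gel-selected, reverse transcribed and barcode-sequenced together with genomic DNA barcodes, and UMIs were collapsed. Cleaved product abundance is the per-construct ratio of RNA to gDNA barcodes, scaled to the median of constructs carrying the unmutated site.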
As to “CGACATGTCCCGCTTCTTTCATTAATTCGTTGGCAACTGTTTTGCTATATACATTTACCTTTTAAGAGGAGGAAT”, the “cleaved RNA product abundance” value came out at 0.687.

Consider “CGACATGTCCCGCTTCTTTCATTAATTCGTTTGCAACTGTTTTGCTATATACATTTACCTTTTAAGAGGAGGAAT”, for which the “cleaved RNA product abundance” value came out at 0.815.

In the case of “CGACATGTCCCGCTTCTTTCATTAATTTGTTAGCAACTGTTTTGCTATATACATTTACCTTTTAAGAGGAGGAAT”, the “cleaved RNA product abundance” value is 1.37.

Regarding “CGACATGTCCCGCTTCTTTCATTACACCGTTAGCAACTGTTTTGCTATATACATTTACCTTTTAAGAGGAGGAAT”, the “cleaved RNA product abundance” value worked out at 1.39.

On to “CGACATGTCCCGCTTCTTTCATTACGCCGTTAGCAACTGTTTTGCTATATACATTTACCTTTTAAGAGGAGGAAT”, for which the “cleaved RNA product abundance” value turned out to be 1.03.

Take “CGACATGTCCCGCTTCTTTCATTACTACCTTAGCAACTGTTTTGCTATATACATTTACCTTTTAAGAGGAGGAAT”: the “cleaved RNA product abundance” value worked out at 0.4.

Take “CGACATGTCCCGCTTCTTTCATTACTACGTTAGCAACTGTTTTGCTATATACATTTACCTTTTAAGAGGAGGAAT”: the “cleaved RNA product abundance” value came to 2.07.

As for “CGACATGTCCCGCTTCTTTCATTACTACGTTAGCAACTGTTTTGCTATATATATTTACCTTTTAAGAGGAGGAAT”, the “cleaved RNA product abundance” value amounted to 1.18.

Consider “CGACATGTCCCGCTTCTTTCATTACTCAGTTAGCAACTGTTTTGCTATATACATTTACCTTTTAAGAGGAGGAAT”, for which the “cleaved RNA product abundance” value was 1.1.

For the sequence “CGACATGTCCCGCTTCTTTCATTACTCCATTAGCAACTGTTTTGCTATATACATTTACCATTTAAGAGGAGGAAT”, the “cleaved RNA product abundance” value amounted to 1.11.

Consider “CGACATGTCCCGCTTCTTTCATTACTCCATTAGCAACTGTTTTGCTATATACATTTACCTTTTAAGAGGAGGAAT”, for which the “cleaved RNA product abundance” value is 1.18.

Turning to “CGACATGTCCCGCTTCTTTCATTACTCCCCTAGCAACTGTTTGGCTATATATATTTACCTTTTAAGAGGAGGAAT”, the “cleaved RNA product abundance” value was determined as 0.221.

As to “CGACATGTCCCGCTTCTTTCATTACTCCCTTAGCAACTGTTTTGCTATATACATTTACCTTTTAAGAGGAGGAAT”, the “cleaved RNA product abundance” value amounted to 0.223.

Consider “CGACATGTCCCGCTTCTTTCATTACTCCGTCAGCAACTGTTTTGCTATATACATTTACCTTTTAAGAGGAGGAAT”, for which the “cleaved RNA product abundance” value worked out at 0.381.

For “CGACATGTCCCGCTTCTTTCATTACTCCGTTAACAACTGTTTTGCTATATACATTTACCTTTTAAGAGGAGGAAT”, the “cleaved RNA product abundance” value stood at 0.261.

For the sequence “CGACATGTCCCGCTTCTTTCATTACTCCGTTACCAACTGTTTTGCTATATACATTTACCTTTTAAGAGGAGGAAT”, the “cleaved RNA product abundance” value turned out to be 0.176.

On to “CGACATGTCCCGCTTCTTTCATTACTCCGTTAGAAACTGTTTTGCTATATACATTTACCTTTTAAGAGGAGGAAT”, for which the “cleaved RNA product abundance” value was 0.478.

Consider “CGACATGTCCCGCTTCTTTCATTACTCCGTTAGCAAATGTTTTGCTATATACATTTACCTTTTAAGAGGAGGAAT”, for which the “cleaved RNA product abundance” value came out at 1.14.

For “CGACATGTCCCGCTTCTTTCATTACTCCGTTAGCAACAGTTATGCTATATACATTTACCTTTTAAGAGGAGGAAT”, the “cleaved RNA product abundance” value was found to be 0.735.

For “CGACATGTCCCGCTTCTTTCATTACTCCGTTAGCAACAGTTTTGCTATATACATTTACCTTTTAAGAGGAGGAAT”, the “cleaved RNA product abundance” value amounted to 0.834.

For the sequence “CGACATGTCCCGCTTCTTTCATTACTCCGTTAGCAACTATTTTGCTATATACATTTACCTTTTAAGAGGAGGAAT”, the “cleaved RNA product abundance” value came to 1.31.

“CGACATGTCCCGCTTCTTTCATTACTCCGTTAGCAACTCTTTTGCTATATACATTTACCTTTTAAGAGGAGGAAT”: the “cleaved RNA product abundance” value worked out at 1.33.

For the sequence “CGACATGTCCCGCTTCTTTCATTACTCCGTTAGCAACTGCTTTGCTATATACATTTACCTTTTAAGAGGAGGAAT”, the “cleaved RNA product abundance” value was determined as 0.597.

As to “CGACATGTCCCGCTTCTTTCATTACTCCGTTAGCAACTGTATTGCTATATACATTTACCTTTTAAGAGGAGGAAT”, the “cleaved RNA product abundance” value worked out at 0.89.

As to “CGACATGTCCCGCTTCTTTCATTACTCCGTTAGCAACTGTCTTGCTATATACATTTACCTTTTAAGAGGAGGAAT”, the “cleaved RNA product abundance” value was 0.946.

Consider “CGACATGTCCCGCTTCTTTCATTACTCCGTTAGCAACTGTGTTGCTATATACATTTACCTTTTAAGAGGAGGAAT”, for which the “cleaved RNA product abundance” value was determined as 0.327.

As to “CGACATGTCCCGCTTCTTTCATTACTCCGTTAGCAACTGTTATGCTATATACATTTACCTTTTAAGAGGAGGAAT”, the “cleaved RNA product abundance” value was 0.602.

“CGACATGTCCCGCTTCTTTCATTACTCCGTTAGCAACTGTTTAGCTATATACATTTACCTTTTAAGAGGAGGAAT”: the “cleaved RNA product abundance” value is 0.694.

With “CGACATGTCCCGCTTCTTTCATTACTCCGTTAGCAACTGTTTGGCTATATACATTTACCTTTTAAGAGGAGGAAT”, the “cleaved RNA product abundance” value worked out at 0.644.

For “CGACATGTCCCGCTTCTTTCATTACTCCGTTAGCAACTGTTTTACTATATACATTTACCTTTTAAGAGGAGGAAT”, the “cleaved RNA product abundance” value was 0.792.

With “CGACATGTCCCGCTTCTTTCATTACTCCGTTAGCAACTGTTTTCCTATATACATTTACCTTTTAAGAGGAGGAAT”, the “cleaved RNA product abundance” value stood at 0.679.

As for “CGACATGTCCCGCTTCTTTCATTACTCCGTTAGCAACTGTTTTGATATATACATTTACCTTTTAAGAGGAGGAAT”, the “cleaved RNA product abundance” value worked out at 0.587.

“CGACATGTCCCGCTTCTTTCATTACTCCGTTAGCAACTGTTTTGCAATATACATTTACCTTTTAAGAGGAGGAAT”: the “cleaved RNA product abundance” value was found to be 0.515.

For “CGACATGTCCCGCTTCTTTCATTACTCCGTTAGCAACTGTTTTGCCATATACATTTACCTTTTAAGAGGAGGAAT”, the “cleaved RNA product abundance” value turned out to be 0.246.

For “CGACATGTCCCGCTTCTTTCATTACTCCGTTAGCAACTGTTTTGCGATATACATTTACCTTTTAAGAGGAGGAAT”, the “cleaved RNA product abundance” value was found to be 0.388.

As to “CGACATGTCCCGCTTCTTTCATTACTCCGTTAGCAACTGTTTTGCTAAATACATTTACCTTTTAAGAGGAGGAAT”, the “cleaved RNA product abundance” value is 1.11.

Regarding “CGACATGTCCCGCTTCTTTCATTACTCCGTTAGCAACTGTTTTGCTATAAACATTTACCTTTTAAGAGGAGGAAT”, the “cleaved RNA product abundance” value stood at 0.608.

As for “CGACATGTCCCGCTTCTTTCATTACTCCGTTAGCAACTGTTTTGCTATACACATTTACCTTTTAAGAGGAGGAAT”, the “cleaved RNA product abundance” value worked out at 0.423.

Consider “CGACATGTCCCGCTTCTTTCATTACTCCGTTAGCAACTGTTTTGCTATAGACATTTACCTTTTAAGAGGAGGAAT”, for which the “cleaved RNA product abundance” value came out at 0.738.

As to “CGACATGTCCCGCTTCTTTCATTACTCCGTTAGCAACTGTTTTGCTATATAAATTTACCTTTTAAGAGGAGGAAT”, the “cleaved RNA product abundance” value is 0.276.

Consider “CGACATGTCCCGCTTCTTTCATTACTCCGTTAGCAACTGTTTTGCTATATACAATTACCTTTTAAGAGGAGGAAT”, for which the “cleaved RNA product abundance” value stood at 1.14.

As for “CGACATGTCCCGCTTCTTTCATTACTCCGTTAGCAACTGTTTTGCTATATACACTTACCTTTTAAGAGGAGGAAT”, the “cleaved RNA product abundance” value is 0.587.

For “CGACATGTCCCGCTTCTTTCATTACTCCGTTAGCAACTGTTTTGCTATATACATATACCTTTTAAGAGGAGGAAT”, the “cleaved RNA product abundance” value was found to be 0.767.

As for “CGACATGTCCCGCTTCTTTCATTACTCCGTTAGCAACTGTTTTGCTATATACATCTACCTTTTAAGAGGAGGAAT”, the “cleaved RNA product abundance” value stood at 0.75.

Take “CGACATGTCCCGCTTCTTTCATTACTCCGTTAGCAACTGTTTTGCTATATACATTAACCTTTTAAGAGGAGGAAT”: the “cleaved RNA product abundance” value was 1.36.

Regarding “CGACATGTCCCGCTTCTTTCATTACTCCGTTAGCAACTGTTTTGCTATATACATTCACCTTTTAAGAGGAGGAAT”, the “cleaved RNA product abundance” value turned out to be 0.658.

In the case of “CGACATGTCCCGCTTCTTTCATTACTCCGTTAGCAACTGTTTTGCTATATACATTGACCTTTTAAGAGGAGGAAT”, the “cleaved RNA product abundance” value is 1.16.

Consider “CGACATGTCCCGCTTCTTTCATTACTCCGTTAGCAACTGTTTTGCTATATACATTTACATTTTAAGAGGAGGAAT”, for which the “cleaved RNA product abundance” value was found to be 1.39.

Take “CGACATGTCCCGCTTCTTTCATTACTCCGTTAGCAACTGTTTTGCTATATACATTTACCATTTAAGAGGAGGAAT”: the “cleaved RNA product abundance” value turned out to be 1.3.

Take “CGACATGTCCCGCTTCTTTCATTACTCCGTTAGCAACTGTTTTGCTATATACATTTACCGTTTAAGAGGAGGAAT”: the “cleaved RNA product abundance” value worked out at 1.01.

Consider “CGACATGTCCCGCTTCTTTCATTACTCCGTTAGCAACTGTTTTGCTATATACATTTACCTTTTAAGAGGAGGAAT”, for which the “cleaved RNA product abundance” value amounted to 1.1.

Turning to “CGACATGTCCCGCTTCTTTCATTACTCCGTTAGCAACTGTTTTGCTATATACATTTACGTTTTAAGAGGAGGAAT”, the “cleaved RNA product abundance” value was determined as 0.893.

In the case of “CGACATGTCCCGCTTCTTTCATTACTCCGTTAGCAACTGTTTTGCTATATACATTTACTTTTTAAGAGGAGGAAT”, the “cleaved RNA product abundance” value stood at 1.59.

As for “CGACATGTCCCGCTTCTTTCATTACTCCGTTAGCAACTGTTTTGCTATATACATTTATCTTTTAAGAGGAGGAAT”, the “cleaved RNA product abundance” value amounted to 1.8.

Take “CGACATGTCCCGCTTCTTTCATTACTCCGTTAGCAACTGTTTTGCTATATACATTTGCCTTTTAAGAGGAGGAAT”: the “cleaved RNA product abundance” value came to 0.366.

Turning to “CGACATGTCCCGCTTCTTTCATTACTCCGTTAGCAACTGTTTTGCTATATACATTTTCCTTTTAAGAGGAGGAAT”, the “cleaved RNA product abundance” value amounted to 0.403.

For “CGACATGTCCCGCTTCTTTCATTACTCCGTTAGCAACTGTTTTGCTATATACGTTTACCTTTTAAGAGGAGGAAT”, the “cleaved RNA product abundance” value amounted to 0.332.

As for “CGACATGTCCCGCTTCTTTCATTACTCCGTTAGCAACTGTTTTGCTATATACTTTTACCTTTTAAGAGGAGGAAT”, the “cleaved RNA product abundance” value is 0.592.

Take “CGACATGTCCCGCTTCTTTCATTACTCCGTTAGCAACTGTTTTGCTATATATATTTACCTTTTAAGAGGAGGAAT”: the “cleaved RNA product abundance” value was 1.44.

For the sequence “CGACATGTCCCGCTTCTTTCATTACTCCGTTAGCAACTGTTTTGCTATATCCATTTACCTTTTAAGAGGAGGAAT”, the “cleaved RNA product abundance” value is 0.21.

“CGACATGTCCCGCTTCTTTCATTACTCCGTTAGCAACTGTTTTGCTATATGCATTTACCTTTTAAGAGGAGGAAT”: the “cleaved RNA product abundance” value was determined as 0.234.
